Reference: IntAct's records for PubMed 18172500

B1: E3 ubiquitin-protein ligase CHFR (Homo sapiens), Q96EP1-1 (parent)
chain: MERPEEGKQSPPPQPWGRLLRLGAEEGEPHVLLRKREWTIGRRRGCDLSFPSNKLVSGDHCRIVVDEKSGQVTLEDTSTSGTVINKLKVVKKQTCPLQTGDVIYLVYRKNEPEHNVAYLYESLSEKQGMTQESFEANKENVFHGTKDTSGAGAGRGADPRVPPSSPATQVCFEEPQPSTSTSDLFPTASASSTEPSPAGRERSSSCGSGGGGISPKGSGPSVASDEVSSFASALPDRKTASFSSLEPQDQEDLEPVKKKMRGDGDLDLNGQLLVAQPRRNAQTVHEDVRAAAGKPDKMEETLTCIICQDLLHDCVSLQPCMHTFCAACYSGWMERSSLCPTCRCPVERICKNHILNNLVEAYLIQHPDKSRSEEDVQSMDARNKITQDMLQPKVRRSFSDEEGSSEDLLELSDVDSESSDISQPYVVCRQCPEYRRQAAQPPHCPAPEGEPGAPQALGDAPSTSVSLTTAVQDYVCPLQGSHALCTCCFQPMPDRRAEREQDPRVAPQQCAVCLQPFCHLYWGCTRTGCYGCLAPFCELNLGDKCLDGVLNNNSYESDILKNYLATRGLTWKNMLTESLVALQRGVFLLSDYRVTGDTVLCYCCGLRSFRELTYQYRQNIPASELPVAVTSRPDCYWGRNCRTQVKAHHAMKFNHICEQTRFKN
B2: Aprataxin and PNK-like factor (Homo sapiens), Q8IW19 (parent)
chain: MSGGFELQPRDGGPRVALAPGETVIGRGPLLGITDKRVSRRHAILEVAGGQLRIKPIHTNPCFYQSSEKSQLLPLKPNLWCYLNPGDSFSLLVDKYIFRILSIPSEVEMQCTLRNSQVLDEDNILNETPKSPVINLPHETTGASQLEGSTEIAKTQMTPTNSVSFLGENRDCNKQQPILAERKRILPTWMLAEHLSDQNLSVPAISGGNVIQGSGKEEICKDKSQLNTTQQGRRQLISSGSSENTSAEQDTGEECKNTDQEESTISSKEMPQSFSAITLSNTEMNNIKTNAQRNKLPIEELGKVSKHKIATKRTPHKEDEAMSCSENCSSAQGDSLQDESQGSHSESSSNPSNPETLHAKATDSVLQGSEGNKVKRTSCMYGANCYRKNPVHFQHFSHPGDSDYGGVQIVGQDETDDRPECPYGPSCYRKNPQHKIEYRHNTLPVRNVLDEDNDNVGQPNEYDLNDSFLDDEEEDYEPTDEDSDWEPGKEDEEKEDVEELLKEAKRFMKRK

Variants of: B1
Details: with parp1_human PARP1, P09874
Target sequence in this assay (P09874 whole entry): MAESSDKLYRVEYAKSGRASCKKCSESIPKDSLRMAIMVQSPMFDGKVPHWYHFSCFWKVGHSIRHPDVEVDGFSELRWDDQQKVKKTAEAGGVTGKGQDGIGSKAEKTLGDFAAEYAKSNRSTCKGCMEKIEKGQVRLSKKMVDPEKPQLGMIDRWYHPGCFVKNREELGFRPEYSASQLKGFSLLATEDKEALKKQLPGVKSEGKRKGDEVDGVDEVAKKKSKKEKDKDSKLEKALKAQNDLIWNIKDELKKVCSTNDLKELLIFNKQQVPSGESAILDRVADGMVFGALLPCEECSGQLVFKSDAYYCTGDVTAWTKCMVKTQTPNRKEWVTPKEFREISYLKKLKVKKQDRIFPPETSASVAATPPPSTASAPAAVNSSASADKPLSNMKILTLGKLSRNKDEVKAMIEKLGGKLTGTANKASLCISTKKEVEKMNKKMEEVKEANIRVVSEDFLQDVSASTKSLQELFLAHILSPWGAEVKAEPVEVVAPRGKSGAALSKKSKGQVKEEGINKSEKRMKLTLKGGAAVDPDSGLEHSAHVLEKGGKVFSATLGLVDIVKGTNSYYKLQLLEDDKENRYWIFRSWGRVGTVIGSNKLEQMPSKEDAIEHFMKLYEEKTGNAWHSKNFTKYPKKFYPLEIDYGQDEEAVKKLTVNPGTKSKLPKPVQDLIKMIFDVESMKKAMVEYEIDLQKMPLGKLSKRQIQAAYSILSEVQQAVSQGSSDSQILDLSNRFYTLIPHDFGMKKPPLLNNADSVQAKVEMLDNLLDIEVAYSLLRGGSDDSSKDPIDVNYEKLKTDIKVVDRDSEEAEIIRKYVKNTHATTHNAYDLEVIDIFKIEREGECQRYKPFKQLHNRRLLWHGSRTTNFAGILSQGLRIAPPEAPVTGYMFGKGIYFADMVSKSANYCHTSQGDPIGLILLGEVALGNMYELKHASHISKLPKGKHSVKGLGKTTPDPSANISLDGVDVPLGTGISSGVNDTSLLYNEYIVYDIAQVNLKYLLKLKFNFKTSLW

| Variant | effect of a mutation on the interaction |
| --- | --- |
| C635A;C641A | disrupting interaction |

Variants of: B2
Details: with parp1_human PARP1, P09874
Target sequence in this assay (P09874 whole entry): as above

| Variant | effect of a mutation on the interaction |
| --- | --- |
| MSGGFELQPRDGGPRVALAPGETVIGRGPLLGITDKRVSRRHAILEVAGGQLRIKPIHTNPCFYQSSEKSQLLPLKPNLWCYLNPGDSFSLLVDKYIFRILSIPSEVEMQCTLRNSQVLDEDNILNETPKSPVINLPHETTGASQLEGSTEIAKTQMTPTNSVSFLGENRDCNKQQPILAERKRILPTWMLAEHLSDQNLSVPAISGGNVIQGSGKEEICKDKSQLNTTQQGRRQLISSGSSENTSAEQDTGEECKNTDQEESTISSKEMPQSFSAITLSNTEMNNIKTNAQRNKLPIEELGKVSKHKIATKRTPHKEDEAMSCSENCSSAQGDSLQDESQGSHSESSSNPSNPETLHAKATDSVLQGSEGNKVKRTSAMYGANAYRKNPVHFQHFSHPGDSDYGGVQIVGQDETDDRPEAPYGPSAYRKNPQHKIEYRHNTLPVRNVLDEDNDNVGQPNEYDLNDSFLDDEEEDYEPTDEDSDWEPGKEDEEKEDVEELLKEAKRFMKRK [C379A;C385A;C421A;C427A] | disrupting interaction |
